Test results from patent publication US20220204601A1 (ADEL, published 2022).
Ends that are not written are not given here.

T1: K280-ac protein fragment (human)
T1 construct: also called mAC
T1 peptide: VQIINK(Ac)KLDLSN

B1: ADEL-Y01h v02 antibody (antibody, V domains shown)
VH: EVQLQESGPGLVKPSQTLSLTCTVSGDSITSGYWNWIRQPPGKGLEYIGYIRYSGRTYYNPSLKSRVTISRDTSKNQFSLKLSSVTAADTAVYYCASVYFTYWGQGTLVTVSS
VL: DVVMTQSPDSLAVSLGERATINCKSSQSLLDSDGKTYLNWYQQKPGQSPKRLISLVSKLDSGVPDRFSGSGSGTDFTLTISSLQAEDVAVYYCWQGSHFPYTFGQGTKLEIK
notes: Humanized antibody; It was detected with anti-human IgG; also called Y01h01v02
B2: ADEL-Y01h v08 antibody (antibody, V domains shown)
VH: EVTLKESGPTLVKPTQTLTLTCTVSGDSITSGYWNWIRQPPGKALEYLAYIRYSGRTYYNPSLKSRLTITRDTSKNQVVLTMTNMDPVDTATYYCASVYFTYWGQGTLVTVSS
VL: DVVMTQSPDSLAVSLGERATINCKSSQSLLDSDGKTYLNWYQQKPGQSPKRLISLVSKLDSGVPDRFSGSGSGTDFTLTISSLQAEDVAVYYCWQGSHFPYTFGQGTKLEIK
notes: Humanized antibody; It was detected with anti-human IgG; also called Y01h01v08
B3: ADEL-Y01h v05 antibody (antibody, V domains shown)
VH: EVQLQQSGPGLVKPSQTLSLTCAVSGDSITSGYWNWIRQSPSRGLEWLGYIRYSGRTYYNPSLKSRITINRDTSKNQFSLQLNSVTPEDTAVYYCASVYFTYWGQGTLVTVSS
VL: DVVMTQSPDSLAVSLGERATINCKSSQSLLDSDGKTYLNWYQQKPGQSPKRLISLVSKLDSGVPDRFSGSGSGTDFTLTISSLQAEDVAVYYCWQGSHFPYTFGQGTKLEIK
notes: Humanized antibody; It was detected with anti-human IgG; also called Y01h01v05
B4: v12 (antibody, V domains shown)
VH: EVQLVESGGGLVQPGRSLRLSCTVSGDSITSGYWNWFRQAPGKGLEYVGYIRYSGRTYYNPSLKSRFTISRDTSKNIAYLQMNSLKTEDTAVYYCASVYFTYWGQGTLVTVSS
VL: EVVLTQSPGTLSLSPGERATLSCKSSQSLLDSDGKTYLNWYQQKPGQSPKRLISLVSKLDSGIPDRFSGSGSGTDFTLTISRLEPEDFAVYYCWQGSHFPYTFGQGTKLEIK
notes: also called Y01h01v12; ADEL-Y01h v12 antibody
B5: ADEL-Y01h v06 antibody (antibody, V domains shown)
VH: EVQLQQSGPGLVKPSQTLSLTCAVSGDSITSGYWNWIRQSPSRGLEWLGYIRYSGRTYYNPSLKSRITINRDTSKNQFSLQLNSVTPEDTAVYYCASVYFTYWGQGTLVTVSS
VL: EVVLTQSPGTLSLSPGERATLSCKSSQSLLDSDGKTYLNWYQQKPGQSPKRLISLVSKLDSGIPDRFSGSGSGTDFTLTISRLEPEDFAVYYCWQGSHFPYTFGQGTKLEIK
notes: Humanized antibody; It was detected with anti-human IgG; also called Y01h01v06
B6: ADEL-Y01h v03 antibody (antibody, V domains shown)
VH: EVQLQESGPGLVKPSQTLSLTCTVSGDSITSGYWNWIRQPPGKGLEYIGYIRYSGRTYYNPSLKSRVTISRDTSKNQFSLKLSSVTAADTAVYYCASVYFTYWGQGTLVTVSS
VL: EVVLTQSPGTLSLSPGERATLSCKSSQSLLDSDGKTYLNWYQQKPGQSPKRLISLVSKLDSGIPDRFSGSGSGTDFTLTISRLEPEDFAVYYCWQGSHFPYTFGQGTKLEIK
notes: Humanized antibody; It was detected with anti-human IgG; also called Y01h01v03
B7: v11 (antibody, V domains shown)
VH: EVQLVESGGGLVQPGRSLRLSCTVSGDSITSGYWNWFRQAPGKGLEYVGYIRYSGRTYYNPSLKSRFTISRDTSKNIAYLQMNSLKTEDTAVYYCASVYFTYWGQGTLVTVSS
VL: DVVMTQSPDSLAVSLGERATINCKSSQSLLDSDGKTYLNWYQQKPGQSPKRLISLVSKLDSGVPDRFSGSGSGTDFTLTISSLQAEDVAVYYCWQGSHFPYTFGQGTKLEIK
notes: also called Y01h01v11; ADEL-Y01h v11 antibody
B8: ADEL-Y01h v09 antibody (antibody, V domains shown)
VH: EVTLKESGPTLVKPTQTLTLTCTVSGDSITSGYWNWIRQPPGKALEYLAYIRYSGRTYYNPSLKSRLTITRDTSKNQVVLTMTNMDPVDTATYYCASVYFTYWGQGTLVTVSS
VL: EVVLTQSPGTLSLSPGERATLSCKSSQSLLDSDGKTYLNWYQQKPGQSPKRLISLVSKLDSGIPDRFSGSGSGTDFTLTISRLEPEDFAVYYCWQGSHFPYTFGQGTKLEIK
notes: Humanized antibody; It was detected with anti-human IgG; also called Y01h01v09
B9: ADEL-Y01h v10 antibody (antibody, V domains shown)
VH: EVQLVESGGGLVQPGRSLRLSCTVSGDSITSGYWNWFRQAPGKGLEYVGYIRYSGRTYYNPSLKSRFTISRDTSKNIAYLQMNSLKTEDTAVYYCASVYFTYWGQGTLVTVSS
VL: DVVMTQSPLSLPVTLGQPASISCKSSQSLLDSDGKTYLNWFQQRPGQSPKRLISLVSKLDSGVPDRFSGSGSGTDFTLKISRVEAEDVGVYYCWQGSHFPYTFGQGTKLEIK
notes: Humanized antibody; It was detected with anti-human IgG; also called Y01h01v10
B10: ADEL-Y01h v04 antibody (antibody, V domains shown)
VH: EVQLQQSGPGLVKPSQTLSLTCAVSGDSITSGYWNWIRQSPSRGLEWLGYIRYSGRTYYNPSLKSRITINRDTSKNQFSLQLNSVTPEDTAVYYCASVYFTYWGQGTLVTVSS
VL: DVVMTQSPLSLPVTLGQPASISCKSSQSLLDSDGKTYLNWFQQRPGQSPKRLISLVSKLDSGVPDRFSGSGSGTDFTLKISRVEAEDVGVYYCWQGSHFPYTFGQGTKLEIK
notes: Humanized antibody; It was detected with anti-human IgG; also called Y01h01v04

Biological target: T1, K280-ac protein fragment
Experiment: ELISA on K280-ac coated at 250 ng/well, HRP anti-human IgG
Protocol: In addition, binding of the K280-ac protein fragment prepared in Preparation Example 1 with the ADEL-Y01h (v01 to v12) antibodies prepared in Preparation Example 2 was measured by ELISA.
First, plates were treated with the K280-ac protein fragment at 250 ng/well and reaction was allowed to proceed at 4° C. overnight. The next day, washing with a washing buffer was performed three times, and then treatment with a primary antibody was performed with 8 concentrations (2 μg, 1 μg, 0.5 μg, 0.25 μg, 0.12 μg, 0.06 μg, 0.03 μg, 0.01 μg). As a secondary antibody, HRP-labeled anti-human IgG antibody was used.

| Binder | Absorbance at 450nm at 0.01ug/well | Absorbance at 450nm at 0.03ug/well | Absorbance at 450nm at 0.06ug/well | Absorbance at 450nm at 0.12ug/well | Absorbance at 450nm at 0.25ug/well | Absorbance at 450nm at 0.5ug/well | Absorbance at 450nm at 1ug/well | Absorbance at 450nm at 2ug/well | binding result |
| --- | --- | --- | --- | --- | --- | --- | --- | --- | --- |
| B1 | 0.103 | 0.203 | 0.377 | 0.805 | 1.12 | 1.61 | 1.83 | 2.08 | – |
| B2 | 0.015 | 0.041 | 0.0375 | 0.0745 | 0.0855 | 0.0965 | 0.179 | 0.294 | – |
| B3 | 0.131 | 0.224 | 0.431 | 0.908 | 1.3 | 1.7 | 1.85 | 2.06 | – |
| B4 | 0.145 | 0.398 | 0.484 | 1.05 | 1.19 | 1.29 | 1.58 | 1.41 | – |
| B5 | 0.0585 | 0.114 | 0.265 | 0.657 | 1.09 | 1.51 | 1.76 | 2.05 | – |
| B6 | 0.0815 | 0.17 | 0.302 | 0.641 | 1.06 | 1.51 | 1.79 | 2.06 | – |
| B7 | 0.0085 | 0.0225 | 0.027 | 0.0345 | 0.036 | 0.0395 | 0.0455 | 0.048 | no binding (tested: 2 ug/well) |
| B8 | 0.251 | 0.542 | 0.75 | 1.22 | 1.32 | 1.45 | 1.61 | 1.69 | – |
| B9 | 0.568 | 0.997 | 1.23 | 1.65 | 1.64 | 1.78 | 1.9 | 1.87 | – |
| B10 | 0.354 | 0.537 | 0.822 | 1.43 | 1.74 | 2.04 | 2.18 | 2.32 | – |
